The text below walks through data of article PMC13730216 (2026).

For this assay, the target named is CXCL12 (Homo sapiens, UniProt P48061). In words: BLI. (In BLI a coated tip is dipped into the sample, and binding shifts an interference pattern.)
Sequence of CXCL12 (P48061 22-89): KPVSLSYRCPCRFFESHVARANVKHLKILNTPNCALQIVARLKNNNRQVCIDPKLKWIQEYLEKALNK

B1: miniCXCR4-WRAP truncated extracellular/ligand-binding part fused to designed WRAP (protein)
chain: MEGISIYTSDNYTEEMGSGDYDSMKEPCFREENANFNKIFLPTIYSIIFLTGIVGNGLVILVMGYQKKLRSMTDKYRLHLSVADLLFVITLPFWAVDAVANWYFGNFLCKAVHVIYTVNLYSSVLILAFISLDRYLAIVHATNSQRPRKLLAEKVVYVGVWIPALLLTIPDFIFANVSEADDRYICDRFYPNDLWVVVFQFQHIMVGLILPGIVILSCYCIIISKLSHSKGHQKRKALKTTVILILAFFACWLPYYIGISIDSFILLEIIKQGCEFENTVHKWISITEALAFFHCCLNPILYAFLGAKFKTSAQHALTS
modifications: truncated CXCR4 with designed loops fused to WRAP; biotinylated CXCL12
In turn, B1 came in with a Kd of 390 nM.

For orientation: Kd means the concentration at which binding is half-saturated.
